This is an account of results in article PMC4066673 (Biochemistry, 2012).

The series deals with the molecule itself. In words: SEC-MALS. On the technique in general: Size exclusion chromatography separates by hydrodynamic size, large species first.

B1: His6-tagged (Δ1-39)hTHEM4 (enzyme, human, UniProt Q5T1C6 40-240, looked up)
chain: EVILKDCSVPNPSWNKDLRLLFDQFMKKCEDGSWKRLPSYKRTPTEWIQDFKTHFLDPKLMKEEQMSQAQLFTRSFDDGLGFEYVMFYNDIEKRMVCLFQGGPYLEGPPGFIHGGAIATMIDATVGMCAMMAGGIVMTANLNINYKRPIPLCSVVMINSQLDKVEGRKFFVSCNVQSVDEKTLYSEATSLFIKLNPAKSLT
For B1, the stoichiometry N (usually a count of units in the complex or per binding partner) was 2.
